The values that follow come from patent US20210395318A1 (Molecular Partners, published 2021).

What is called Kd is the constant that tells how readily two partners part at equilibrium. One may read the koff as a measure of how fast the partners let go of each other. Usually kon stands for the rate constant with which the complex forms.

For test [1], the target named is T1, biotinylated cynomolgus CD40 (Acro Biosystem) (cynomolgus, UniProt G7PG38 21-193, biotinylated (sites not given)).
T1 construct: also called Bio-cCD40
The test is described as follows: SPR (ProteOn XPR36), biotinylated CD40 on NLC chip, Protein #5 as analyte, PBST, 1:1 Langmuir. The protocol: (§1) All SPR measurements were performed using a ProteOn XPR36 instrument (BioRad) and a running buffer of PBS pH 7.4 containing 0.005% Tween 20® (PBST). The 1:1 Langmuir model was used for the fitting of SPR traces.
(§2) ProteOn setup for Protein #5 binding to CD40 of different species. CD40 proteins (Acro Biosystem) of different species (human, cynomolgus, mouse) were biotinylated with standard methods known in the art, resulting in bio-hCD40, bio-cCD40 and bio-mCD40 proteins. The bio-hCD40, bio-cCD40 and bio-mCD40 proteins were immobilized on an NLC chip (BioRad) to a level of respectively 300 RU, 250 RU and 300 RU. The interaction of Protein #5 with CD40 was measured by injecting Protein #5 in a serial dilution of 3, 1.5, 0.75, 0.38 and 0.19 nM with an association of 120 s and dissociation of 900 s using a constant flow of 100 μl/min. The measurement was repeated two or three times and the targets were regenerated between the individual measurements using 10 mM glycine pH 2 for 18 s at a flow of 100 μl/min. The signals were double referenced against the running buffer (PBST) treated control lanes.

Test [2] has as its target T2, biotinylated human CD40 (Acro Biosystem) (human, UniProt P25942 21-193, biotinylated (sites not given)).
T2 construct: Bought protein; also called Bio-hCD40; hCD40
The description is as above. The protocol:
as §1, §2

Test [3] deals with human CD40 on primary human B cells or human monocyte-derived dendritic cells (human, UniProt P25942 21-277). The test can be described thus: cell-based or functional assay.
human CD40 on primary human B cells or human monocyte-derived dendritic cells, sequence (P25942 21-277 H80K/K81H limits assumed): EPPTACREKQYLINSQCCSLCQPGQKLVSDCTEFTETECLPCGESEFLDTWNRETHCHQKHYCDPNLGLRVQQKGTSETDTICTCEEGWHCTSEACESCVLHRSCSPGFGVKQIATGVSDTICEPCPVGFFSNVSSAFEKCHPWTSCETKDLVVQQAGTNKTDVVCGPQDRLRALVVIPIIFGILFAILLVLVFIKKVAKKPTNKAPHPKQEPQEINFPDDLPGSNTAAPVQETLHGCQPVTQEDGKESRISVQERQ
Test [4] has as its target T3, biotinylated mouse CD40 (Acro Biosystem) (mouse, UniProt P27512 24-193, limits assumed, biotinylated (sites not given)).
T3 construct: also called Bio-mCD40
T3 sequence (looked up): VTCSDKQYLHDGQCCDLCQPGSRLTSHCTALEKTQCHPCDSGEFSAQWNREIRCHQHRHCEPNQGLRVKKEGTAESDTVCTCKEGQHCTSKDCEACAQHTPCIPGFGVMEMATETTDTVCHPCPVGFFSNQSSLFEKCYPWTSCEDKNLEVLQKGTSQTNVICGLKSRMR
The test is described as follows: SPR (ProteOn XPR36), bio-mCD40 on NLC chip, Protein #5 as analyte. As for the experimental part: as §1, §2

The target in test [5] is T4, mouse serum albumin (mouse, UniProt P07724 25-608).
T4 construct: also called MSA
The test is described as follows: SPR (ProteOn XPR36), Protein #5 captured on hFAP-coated GLC chip, serum albumin as analyte, PBST; flagged as overestimated, inaccurate fit. The protocol:
as §1
(§3) ProteOn setup for Protein #5 binding to serum albumin of different species. First, human FAP (hFAP) was coated on a GLC chip (BioRad) to a level of 700 RU before 50 nM Protein #5 was immobilized as analyte for 120 s (dissociation of 0 s) at constant flow of 100 μl/min to a level of 120 RU. The binding of the serum albumin to Protein #5 was measured by injecting human serum albumin (HSA), cynomolgus serum albumin (CSA) and mouse serum albumin (MSA) in a serial dilution of 100, 33, 11 and 3.7 nM with an association of 120 s and a dissociation of 600 s at a constant flow of 100 μl/min. HSA, CSA and MSA binding was measured serially and the hFAP/Protein #5 complex was regenerated each time with 10 mM glycine pH2 for 18 s at a flow of 100 μl/min. Thus, Protein #5 had to be re-immobilized on hFAP after each regeneration step. […] The kinetic was calculated on the first 300 s of dissociation.

For test [6], the target named is T5, human serum albumin (human, UniProt P02768 25-609).
T5 construct: also called HSA
T5 sequence (P02768 25-609 limits assumed): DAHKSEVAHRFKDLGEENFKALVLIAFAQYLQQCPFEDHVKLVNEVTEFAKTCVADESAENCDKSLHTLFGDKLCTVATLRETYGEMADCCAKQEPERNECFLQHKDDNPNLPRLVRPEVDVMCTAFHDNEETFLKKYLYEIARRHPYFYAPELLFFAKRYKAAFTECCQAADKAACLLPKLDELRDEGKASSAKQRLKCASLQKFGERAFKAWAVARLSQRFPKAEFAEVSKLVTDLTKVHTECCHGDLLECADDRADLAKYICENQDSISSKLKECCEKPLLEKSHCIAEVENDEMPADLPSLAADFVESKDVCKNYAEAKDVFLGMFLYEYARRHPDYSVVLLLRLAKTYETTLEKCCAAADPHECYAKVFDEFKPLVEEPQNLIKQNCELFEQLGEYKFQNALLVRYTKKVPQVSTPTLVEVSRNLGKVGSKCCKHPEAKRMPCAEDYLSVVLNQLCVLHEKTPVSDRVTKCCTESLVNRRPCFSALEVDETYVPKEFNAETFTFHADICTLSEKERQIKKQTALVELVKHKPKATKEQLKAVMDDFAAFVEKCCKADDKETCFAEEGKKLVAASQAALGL
The test can be described thus: SPR (ProteOn XPR36), Protein #5 captured on hFAP-coated GLC chip, serum albumin as analyte, PBST. As for the experimental part:
as §1, §3

Test [7] deals with T6, cynomolgus serum albumin (cynomolgus, UniProt A2V9Z4 25-608).
T6 construct: also called CSA
T6 sequence (A2V9Z4 25-608 limits assumed): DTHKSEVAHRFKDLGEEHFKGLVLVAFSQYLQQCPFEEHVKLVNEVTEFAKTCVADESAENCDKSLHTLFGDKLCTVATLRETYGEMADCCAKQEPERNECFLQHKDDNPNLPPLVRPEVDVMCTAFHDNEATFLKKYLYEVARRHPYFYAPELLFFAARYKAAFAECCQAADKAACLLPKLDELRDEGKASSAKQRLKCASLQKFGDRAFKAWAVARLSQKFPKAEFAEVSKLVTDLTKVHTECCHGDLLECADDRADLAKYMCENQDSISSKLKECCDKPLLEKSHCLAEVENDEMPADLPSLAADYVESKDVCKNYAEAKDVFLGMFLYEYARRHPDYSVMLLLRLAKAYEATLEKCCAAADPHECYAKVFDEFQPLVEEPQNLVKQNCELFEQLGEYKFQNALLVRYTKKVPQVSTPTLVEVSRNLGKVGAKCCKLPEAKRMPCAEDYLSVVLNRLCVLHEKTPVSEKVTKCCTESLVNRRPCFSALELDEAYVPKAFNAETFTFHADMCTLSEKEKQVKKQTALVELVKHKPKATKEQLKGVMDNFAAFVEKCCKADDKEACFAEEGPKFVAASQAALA
The description is as above. As for the experimental part:
as §1, §3

The target of test [8] is T4, mouse serum albumin. The test is described as follows: SPR (ProteOn XPR36), Protein #5 captured on hFAP-coated GLC chip, serum albumin as analyte, PBST; flagged as overestimated, inaccurate fit; MSA as analyte; patent flags the fit as inaccurate (Chi^2/Rmax 13.1 %) and the KD as overestimated due to nonspecific binding of MSA on the chip. The protocol:
as §1, §3

T2 sequence (P25942 21-193 H80K/K81H limits assumed): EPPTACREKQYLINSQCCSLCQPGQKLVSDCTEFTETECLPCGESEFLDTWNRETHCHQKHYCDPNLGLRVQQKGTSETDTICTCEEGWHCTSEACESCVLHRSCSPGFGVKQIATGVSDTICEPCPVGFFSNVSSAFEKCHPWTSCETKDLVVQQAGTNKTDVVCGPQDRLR

B1: DARPin Protein #5 (designed binder)
chain: GSDLGKKLLEAARAGQDDEVRELLKAGADVNAKDYFSHTPLHLAARNGHLKIVEVLLKAGADVNAKDFAGKTPLHLAAADGHLEIVEVLLKAGADVNAQDIFGKTPADIAADAGHEDIAEVLQKAAGSPTPTPTTPTPTPTTPTPTPTGSDLGKKLLEAARAGQDDEVRILLAAGADVNAKDVLGWTPLHLAAFEGHLEIVEVLLKAGADVNAKDKKGWTPLQLAARTGHLEIVEVLLKAGADVNAKDHIGATPLHLAAWQGHPEIVEVLLKAGADVNAQDKSGKTPADLAADAGHEDIAEVLQKAAGSPTPTPTTPTPTPTTPTPTPTGSDLGKKLLQAARAGQLDEVRELLKAGADVNAKDTWGFTPLHIAAESGHLEIVEVLLKAGADVNAKDVQGRTPLHIAAHSGHLEIVEVLLKAGADVNAKDFRGWTPLHLAAWSGHLEIVEILLKAGADVNAQDKSGKTPADLAARAGHQDIAEVLQKAAGSPTPTPTTPTPTPTTPTPTPTGSDLGKKLLQAARAGQLDEVRELLKAGADVNAKDTWGFTPLHIAAESGHLEIVEVLLKAGADVNAKDVQGRTPLHIAAHSGHLEIVEVLLKAGADVNAKDFRGWTPLHLAAWSGHLEIVEILLKAGADVNAQDKSGKTPADLAARAGHQDIAEVLQKAA
notes: also called SMA136; Molecule No. 1
Turning to B1, the Kd in test [1] is 0.101 nM; in test [2], 0.103 nM; in test [6], 50 nM; in test [7], 409 nM; in test [8], 40 nM. Moreover, the dissociation rate constant (koff) was 0.000824 s⁻¹ in test [1]; 0.00103 s⁻¹ in test [2]; 0.0126 s⁻¹ in test [5]; 0.0179 s⁻¹ in test [6]; 0.217 s⁻¹ in test [7]. The kon in test [1] is 8.25e+06 M⁻¹ s⁻¹; in test [2], 1.01e+07 M⁻¹ s⁻¹; in test [5], 315000 M⁻¹ s⁻¹; in test [6], 358000 M⁻¹ s⁻¹; in test [7], 532000 M⁻¹ s⁻¹. Further, the “EC50, upregulation of CD86 and CD69 in human B cells co-cultured with FAP-expressing CHO cells” value in test [3] fell in the range of 0.04 to 0.07 nM. Besides, in test [4], the binding result was “no binding (tested: 3 nM (highest concentration injected))”.
